# Test results reported in PMC12578637, “Structure of a distinct β-barrel assembly machinery complex in the Bacteroidota” (Nature Microbiology, 2025).
# B1: BtBamH (Bt4306) (natural protein, UniProt Q89ZS0 18-542, looked up)
# chain: CDDNTGGLGLGMFPGNDQNIKGKLSTFDVTTESVKTGDIYAKTNIGYIGKFTDETFGTYQAGFLAQLNCPDGLTFPEPYKEVTDASGNVISATGRMVVDDKDPENKDVTFIKDGNQIIGNIRAVELYLWYDSYFGDSLTACRLSVYELGGNGKETLNLDNAYYTDINPEDFYDSQNILGTKAYTAVDLSVKDSIRNLSTYVPSVHIAFKEDIATRVGGNILTAARKAKNADKEFNSQLFREAFQGIYVKSDYGDGTVLYIDQPQMNVVYKCYATDSITGKKLQKKDGSGKDSTYYSYRVFATTREVIQANQLKNDPERIDALIKEDKNTYLKSPAGIFTEATLPISDIQNELTGDTLNAVKLTFTNYNQTGDKKFGMAIPSTVMLVRKKFQDSFFKDNKLSDGVSSYLTSHTSSTNQYVFSNITKLVNACIAEKEEAKKNAGSSWDETKWLQENPDWNKVVLIPVLVTYDSSNTTTGQANIIRIQHDLKPGYVRLKGGSLGKTNPDYKLKLEVISTDFGLTTKSN
# modifications: tri-acylated lipid anchor on the N-terminal cysteine; O-glycosylation (Ser309 among the sites)
# How the values were obtained:
# Assay in all cases: cryo-EM structure; BtBAM complex co-purified through BamAhis from native membranes, in DDM, 8 mg/ml; two 3D classes (3.28 Å and 3.46 Å); AF2 models docked and refined
# Settings in all cases: both partners purified
# [1] = target: T1, BtBamA (Bt3725), B. thetaiotaomicron BamA with N-terminal His7 tag (B. thetaiotaomicron, UniProt Q8A1E1 20-885)
# T1 sequence (looked up): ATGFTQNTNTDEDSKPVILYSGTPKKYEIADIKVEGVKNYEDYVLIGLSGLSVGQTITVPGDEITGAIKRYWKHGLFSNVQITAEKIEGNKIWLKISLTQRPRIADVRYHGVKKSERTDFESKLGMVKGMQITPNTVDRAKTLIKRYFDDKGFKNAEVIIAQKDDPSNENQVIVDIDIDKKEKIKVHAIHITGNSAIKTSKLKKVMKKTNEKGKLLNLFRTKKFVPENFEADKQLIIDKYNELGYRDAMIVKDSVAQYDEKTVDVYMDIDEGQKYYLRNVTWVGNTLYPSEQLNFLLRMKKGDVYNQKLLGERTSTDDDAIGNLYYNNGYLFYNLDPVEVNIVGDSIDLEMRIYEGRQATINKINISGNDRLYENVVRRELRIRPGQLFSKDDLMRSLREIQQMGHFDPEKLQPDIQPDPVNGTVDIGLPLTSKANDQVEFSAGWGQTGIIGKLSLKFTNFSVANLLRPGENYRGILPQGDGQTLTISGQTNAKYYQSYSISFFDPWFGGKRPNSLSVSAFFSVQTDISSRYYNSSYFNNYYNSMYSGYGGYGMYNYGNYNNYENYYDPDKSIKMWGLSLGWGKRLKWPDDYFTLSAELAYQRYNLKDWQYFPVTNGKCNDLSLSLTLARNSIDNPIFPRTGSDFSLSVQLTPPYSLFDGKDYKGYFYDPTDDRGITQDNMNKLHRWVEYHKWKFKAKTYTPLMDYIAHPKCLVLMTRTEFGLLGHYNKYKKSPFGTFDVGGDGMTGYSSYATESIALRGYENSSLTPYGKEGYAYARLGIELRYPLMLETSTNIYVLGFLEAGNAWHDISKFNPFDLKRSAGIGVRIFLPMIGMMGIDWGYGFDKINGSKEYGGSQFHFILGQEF
# [2] = target: T2, BtBamI (Bt3727) (B. thetaiotaomicron (endogenous in B. …, UniProt Q8A1D9 22-493, lipid anchor cysteine)); O-glycosylation at 10 sites (Ser67 among them))
# T2 sequence (looked up): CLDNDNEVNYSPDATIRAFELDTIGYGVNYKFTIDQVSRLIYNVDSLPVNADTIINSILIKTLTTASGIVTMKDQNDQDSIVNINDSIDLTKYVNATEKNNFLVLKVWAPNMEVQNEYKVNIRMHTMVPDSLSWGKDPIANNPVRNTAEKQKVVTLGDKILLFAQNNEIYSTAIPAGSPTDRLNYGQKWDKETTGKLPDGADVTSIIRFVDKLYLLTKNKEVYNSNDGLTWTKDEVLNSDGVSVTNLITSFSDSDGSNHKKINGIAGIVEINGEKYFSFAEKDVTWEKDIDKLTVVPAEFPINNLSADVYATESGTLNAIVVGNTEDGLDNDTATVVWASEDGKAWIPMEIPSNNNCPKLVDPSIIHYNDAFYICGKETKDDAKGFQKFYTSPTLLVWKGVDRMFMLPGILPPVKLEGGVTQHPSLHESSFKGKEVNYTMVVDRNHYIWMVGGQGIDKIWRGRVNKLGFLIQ
# [3] = target: B1
Binder,binding result [1],binding result [2],binding result [3]
B1,binds,,
"BtBamJ (Bt3612) (natural protein, UniProt Q8A1P7 20-196, looked up, lipid anchor cysteine; O-glycosylation sites) CSETEEVGKYDNWRARNEAFIDSLANVYATASGRGGLERIEMLTAPGNYIYYKEMEPMTDHVVKAGNPKYTDYVKVYYKGTNILGEYFDGNFKGDNPVVDGKDPSEGDSPTTIFQVSGVITGWGEVLQRMEVGDRWKVYIPWDYAYGSSGTTGILGYSALVFDITLLDFANTEAELK",,binds,binds
